Test results: publication doi:10.1101/2023.07.18.549521

Target: LC3B LIR docking site (LDS) mutant (F52A/L53A) (UniProt Q9GZQ8)
Assay: ITC

- Kd: > 300 µM
Substance: tepsin LIR motif peptide (residues 185-193)
